# Measured values: paper PMC4714923
# T1: Hsp72 C-terminal tracer (Fam-…) (human)
# T1 chain: GSGPTIEEVD
# B1: Human FKBP51 (51-kDa FK506-binding protein), Q13451 1-457 (natural protein)
# chain: MTTDEGAKNNEESPTATVAEQGEDITSKKDRGVLKIVKRVGNGEETPMIGDKVYVHYKGKLSNGKKFDSSHDRNEPFVFSLGKGQVIKAWDIGVATMKKGEICHLLCKPEYAYGSAGSLPKIPSNATLFFEIELLDFKGEDLFEDGGIIRRTKRKGEGYSNPNEGATVEIHLEGRCGGRMFDCRDVAFTVGEGEDHDIPIGIDKALEKMQREEQCILYLGPRYGFGEAGKPKFGIEPNAELIYEVTLKSFEKAKESWEMDTKEKLEQAAIVKEKGTVYFKGGKYMQAVIQYGKIVSWLEMEYGLSEKESKASESFLLAAFLNLAMCYLKLREYTKAVECCDKALGLDSANEKGLYRRGEAQLLMNEFESAKGDFEKVLEVNPQNKAARLQISMCQKKAKEHNERDRRIYANMFKKFAEQDAKEEANKAMGKKTSEGVTNEKGTDSQAMEEEKPEGHV
# modifications: here or on the partner: 5-carboxyfluorescein (5-Fam) on the N-terminus via a 6-carbon spacer (aminohexanoic acid)
# Biological target: T1, Hsp72 C-terminal tracer (Fam-…) (human)
# Assay: fluorescence polarisation
# Details: remark: other sources report otherwise
binder,measurement,value
B1,Kd,> 75 µM
